Laboratory results reported in the supplement of paper PMC9732359.
± gives the uncertainty stated by the source.

Experiment: protein stability index of a GFP-peptide fusion (yeast GPS) (PSI 1-4); higher = more stable; sorted into four equal gates, so the index is relative within each strain
Conditions: pdr5∆
Method in brief: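 Tiled yeast protein peptides of 17 residues were each joined downstream of GFP, on plasmids that also express Cherry. The pooled library was maintained in yeast, and mid-log cultures in leucine-free medium were sorted into four equal gates on the GFP/Cherry ratio. Plasmids from every gate were amplified by PCR and sequenced on Illumina, with barcodes linking reads to strains. The protein stability index of a peptide is its gate-number-weighted read frequency summed over the gates.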

Sequence | protein stability index
NEAGRKLSDIFLSKPSK [SNF2] | 3.27 ± 0.087
NEAPPKTSLADWQKEDG [YMR153W/NUP53] | 3.14 ± 0.1
NEDENIQLIKILNSHFD [YJL041W/NSP1] | 2.98 ± 0.056
NEENDLDVDPAKRIRVS [RPB2] | 3 ± 0.07
NEKEQLSFINPKTGKVE [SEC65] | 2.89 ± 0.11
NELQEERLKVPILVTLV [POP6] | 1.99 ± 0.036
NEMLLKRVTKVKRLLFT [MTW1] | 1.56 ± 0.049
NETIIDNFSPHQNVIIG [SMC3] | 2.56 ± 0.17
NEVCLEKENRFEIVDRE [SMC4] | 2.92 ± 0.11
NEVYSAYVVNDTAPKPN [DLS1] | 3.1 ± 0.12
NFLETIASTEKPENKTD [SIR4] | 2.93 ± 0.089
NFLLPDIFGDSELFDEW [ISW2] | 2.46 ± 0.076
NFNASLQLTTNTEQGDS [SNM1] | 2.3 ± 0.064
NGDKKVDIYSLPLISTD [YMR129W/POM152] | 2.76 ± 0.056
NGGDKELEMIGGTNEDD [YCS4] | 2.79 ± 0.21
NGGNNTQQPGTNSHYNN [SNF2] | 3.16 ± 0.063
NGKDSEIMYTGVSISVS [SMC3] | 2.87 ± 0.21
NGNWEVGVHIADVTHFV [DIS3] | 2.09 ± 0.061
NGQEQQGPVKNTQLHGP [RGR1] | 3.12 ± 0.057
NGSEKVLIAQERSAGNI [RPB2] | 3.44 ± 0.21
NGTMINEVIDKLKNENT [PCI8] | 2.91 ± 0.052
NGVIIAADNLGSYGSLL [PRE4] | 3.15 ± 0.13
NGVVIATEKKSSSPLAM [PRE8] | 3 ± 0.17
NHASMDVYNRELDEHTT [BRR2] | 3.16 ± 0.063
NHNGSALLIEVFTALLR [ITC1] | 1.38 ± 0.055
NIALVSKLRNNIRSQLL [SRP54] | 2.56 ± 0.058

Sequence | protein stability index
NIELHSLYTSREPRVVS [PUP1] | 3.1 ± 0.068
NIKSNDFSIRKTCAKSV [ECM29] | 2.24 ± 0.1
NILALNLVSLLIIVTRK [YML031W/NDC1] | 1.35 ± 0.044
NILTTHLSHPGTNKDMI [ECM29] | 2.2 ± 0.067
NINFASGVKNDILQSLS [CDC53] | 2.39 ± 0.045
NIPRRELKINLPLTEHK [SRB4] | 2.66 ± 0.072
NIVKQNEGIDLDTYRER [SMC2] | 3.51 ± 0.12
NKANIQALIHGLNRHYY [RPN11] | 2.52 ± 0.073
NKDASLALQRGATVFVN [DPB4] | 2.29 ± 0.072
NKDLSELVIRLEKDAAD [YIL149C/MLP2] | 3.15 ± 0.084
NKELPINHTILGKLQDV [RPN8] | 2.69 ± 0.068
NKENDNVPSTKFNAAPE [SNF12] | 3.36 ± 0.068
NKEYTLVHGIFGAKMSR [SIN4] | 2.98 ± 0.13
NKKIGKRPPEIMSTEAH [SIR4] | 3.27 ± 0.17
NKKSEQALDISKKGKPT [SRP72] | 3.02 ± 0.071
NKLDEYHGLYTNYEMSY [LIN1] | 1.78 ± 0.059
NKLMEKDFQVNKEIKPY [SIR4] | 3.38 ± 0.054
NKLRQQAIAKNNPQVVN [SNF5] | 1.94 ± 0.042
NKNGENKKIGKRPPEIM [SIR4] | 3.21 ± 0.11
NKNLPFVWLSSEENIGS [SWI1] | 1.84 ± 0.072
NKRLSRGKKGLKKKVVD [RPS1B] | 3.44 ± 0.15
NKTLTLDLKECYQFAEY [ARP7] | 2.3 ± 0.072
NKTVNEAAKPSLSFGSG [YJL041W/NSP1] | 3.01 ± 0.083
NLATKGMVKLNEYPVAD [REC8] | 1.52 ± 0.05
NLEFNYTKPYPNFEASF [SMC2] | 2.21 ± 0.1
NLEKNYLAKLSKQLSLE [IRR1] | 3.34 ± 0.12

Sequence | protein stability index
NLIGVITHQGANSESGH [UBP6] | 3 ± 0.091
NLLKVSVDICNNSKSRY [ECM29] | 2.2 ± 0.066
NLLLSASRDKTLISWKL [ASC1] | 2.79 ± 0.06
NLLQISAAELERLDKDK [SNF5] | 2.89 ± 0.13
NLLTPQPTNFTTKRLWS [MCD1] | 2.79 ± 0.063
NLNAFVDFSKYNTNFNL [SRP72] | 2.81 ± 0.12
NLQTFTHEQWSNIQRNV [SRP72] | 3 ± 0.064
NLRRHSDIVLDKKVTLI [SIN4] | 3.05 ± 0.042
NLSSNVNFTEIGGLIPQ [YCS4] | 2.46 ± 0.073
NLYDDVKCWSKFIEKFQ [MED1] | 3.07 ± 0.11
NMGSLLGLCLVIQIVTG [COB] | 2.58 ± 0.053
NMKVTILHGSKSQEQRE [PRP28] | 3.31 ± 0.15
NMMNQVGEEETSQKMKK [SRP54] | 3.39 ± 0.12
NMNLNPQMFLNQQAQAR [GAL11] | 2.42 ± 0.035
NNFRESDIIILKGEIED [SIR4] | 2.12 ± 0.091
NNIVSVLTAGVNSVAIK [RPN11] | 2.26 ± 0.087
NNNINENELFNDRKQTT [SSN2] | 3.09 ± 0.1
NNNNAPIIIYGTENTER [YOR098C/NUP1] | 2.69 ± 0.06
NNNNNNNNNNNNDDNGN [MED2] | 2.94 ± 0.033
NNSNSNNNSSNEKEQLS [SEC65] | 2.72 ± 0.041
NNVNEYSYTTIVLSDQT [YJL039C/NUP192] | 3.14 ± 0.066
NNYDDFMLSDDEGMESI [RRI2] | 3.71 ± 0.19
NNYPNVELTYSLNNSDS [BRR2] | 2.42 ± 0.18
NPHDTLNRIKKYLLTQR [PRP8] | 2.14 ± 0.08
NPLMYSGGNNTATIINN [PCI8] | 2.9 ± 0.057
NQFKRIDTLLYLMTYPQ [RET1] | 1.44 ± 0.11

Sequence | protein stability index
NQILQTEIENYLLENNQ [YDL116W/NUP84] | 2.24 ± 0.038
NQNFSLTFQPQQQTNAL [GRR1] | 3.2 ± 0.061
NQQAQARQQVAQQLRNQ [GAL11] | 2.94 ± 0.13
NQSTIYEDEELSRAEYD [LIN1] | 3.2 ± 0.087
NRAARDRRAQRVAEKRD [RPL19A] | 2.69 ± 0.082
NRIIKADDHASVQINVA [RPS21A] | 3.05 ± 0.052
NRKIYQFTLYDRELNEV [SMC3] | 2.62 ± 0.11
NRKRIVTLRKSLYTNTS [RPL3] | 2.27 ± 0.065
NRLEIKYHNDLIEKEIQ [SMC1] | 2.51 ± 0.083
NRLEKEQSVKTQNSRHY [LIN1] | 2.85 ± 0.12
NRLSNPQKNLLLKGPAS [YOR098C/NUP1] | 3.05 ± 0.038
NRPDNKNAQYHLLVKQG [RPN7] | 2.58 ± 0.053
NRQICLVQKTVQESGNI [GRR1] | 3.21 ± 0.077
NRSAKNSKNDSANVELF [YCS4] | 3.29 ± 0.11
NRVPDGFQDRSLPHFPK [RPO31] | 2.86 ± 0.15
NRYAFSQPTNSTTTSLH [SMC4] | 2.33 ± 0.052
NSGNSNSNSNQQSTDAD [RPT1] | 2.48 ± 0.081
NSINKTTVPFKESDDPS [POP1] | 2.93 ± 0.06
NSIRAREVENSVSLLNS [SMC1] | 2.78 ± 0.06
NSMEYTGKITKMFQDIR [CDC53] | 3.41 ± 0.14
NSNQQQNPKLFQTIFSK [SIN4] | 2.19 ± 0.069
NSNTNLNSLSPQAILAK [SWI1] | 1.93 ± 0.033
NSQVFGVARIYASFNDT [RPS14B] | 2.45 ± 0.065

Same assay, conditions: san1∆

Sequence | protein stability index
NDTISEDILQGIFNLLN [NUT1] | 2.13 ± 0.12
